The target in data set [1] is T1, Retinol binding protein-4 (RBP-4) (UniProt P02753 19-201). Kind of data set: EIS (electrochemical impedance, Langmuir linearization); same measurement as the Kd row; 2 mM MgCl2; 0.1 M PBS + 2 mM MgCl2, Fe(CN)6 3-/4- redox probe, aptamer on gold electrode with MCH; aptamer folded at 70 C 1 min then ice 10 min; immobilization at room temp.
For data set [2], the target named is T1, Retinol binding protein-4 (RBP-4). Kind of data set: EIS (electrochemical impedance, Langmuir linearization); folded aptamer, 0.1 uM in immobilization; 2 mM MgCl2; Fe(CN)6 3-/4- probe; 0.1 M PBS + 2 mM MgCl2, Fe(CN)6 3-/4- redox probe, aptamer on gold electrode with MCH; aptamer folded at 70 C 1 min then ice 10 min; immobilization at room temp.

As to ACAGTAGTGAGGGGTCCGTCGTGGGGTAGTTGGGTCGTGG (ssDNA, 5'-thiol (-SH)) [Apt-RBP-4], the Ka in data set [1] is 2e+07 M⁻¹. For the same molecule, in data set [2], the dissociation constant (Kd) (in general, the concentration at which binding is half-saturated) turned out to be 0.05 µM.
